Experiment: SDS-PAGE oligomerization of purified Hfq variants
Type: physicochemical, E. coli
Details: 4–20% SDS-PAGE, ~2.8 µg protein, 2% SDS, boiled
Protocol: Figure 2. CTD and RNA occupy the same rim binding site. […] The CTD linker is shown in purple, the acidic tip in red and the N-terminal FITC as a yellow star. Hfq core is shown in cyan, with basic rim patches in dark blue. […] (C) Reaction scheme for annealing an RNA molecular beacon to a target RNA (open bar) ([Hopkins et al., 2011]; [Panja et al., 2015]). (D) Progress curves for annealing 50 nM molecular beacon and 100 nM Target by 50 nM Hfq65 hexamer at 30°C, measured by stopped-flow fluorescence. See Figure 2—figure supplement 3 for further data. (E) Contribution of core residues to CTD binding. Interaction energy (Expected Energetic Contribution; EEC) in silico for a core residue in the Rosetta models (solid symbols and solid line; adjusted R^2 = 0.77) or the average annealing rates for Target and Target-A18 relative to Hfq65 (open symbols and dashed line; adjusted R^2 = 0.94) versus experimental CTD binding energy (∆∆G°) for each Hfq65 variant. The binding energy, ∆∆G° = –RTln(Kd^MUT/Kd), reflects the perturbation to CTD binding by a mutation in Hfq65. The interaction energy in silico or EEC is defined as the average energy of a tail–core interaction multiplied by the average number of tail–core interactions per model (Figure 1B, top and Equation 3). The relative annealing rate for Hfq65 variants, krel = kobs^MUT/kobs^WT, is <1 if the mutated residue is important for RNA annealing. Figure 2—figure supplement 1. SDS-PAGE of purified Hfq variants. WT Hfq assembles into hexamers and dodecamers that are stable to SDS-PAGE, which can be used to evaluate the oligomerization of Hfq variants. Purified Hfq protein (~2.8 µg) was separated on a 4–20% SDS-PAGE gel and stained with Coomassie blue (lanes 2–6). Samples were prepared in 2% SDS and boiled before loading. Lane 1, Protein standards (10 µL All Blue Precision Plus, […]). […] Annealing of 100 nM Target RNA to 50 nM beacon RNA by Hfq65 and Hfq65 variants was measured by stopped flow fluorescence at 30°C in 1 × TNK buffer. […] The change in fluorescence emission intensity was normalized to the maximum fluorescence within an experiment. […]

Substance | oligomeric state on SDS-PAGE
Hfq65: truncated E. coli Hfq variant lacking the CTD | form hexamers with slightly different stabilities
Hfq102: full-length E. coli Hfq | migrates as a dodecamer (red dot) and monomer (green dot) with no visible hexamer band
